Test results: US20260116960A1 (SHANGHAI HONGCHENG BIOPHARMACEUTICAL, published 2026)
Values belong to the binder of their own block, whether it stands above or below them.

How the values were obtained:
[1] = target: T1, Biotinylated Human VEGF165 (Acro, Catalog No. VE5-H82Q0) (human, UniProt P15692-4 27-191, biotinylated (site not stated)); assay: flow cytometry: antibody titrated on CHOK1-hCTLA4 cells, then mixture of hPD1-mFc and biotin-hVEGF165; PE streptavidin signal
T1 construct: Bought protein; also called Biotinylated-hVEGF165; Biotin-hVEGF165
Method: CHOK1-hCTLA4 cells were obtained by trypsin digestion, washed twice with PBS containing 2% FBS (FACS buffer), and the cell density was adjusted to about 8×10⁵ cells/ml. 200 μL/well of the cells were added to a 96-well U-bottom plate. After centrifugation at 300 g for 5 minutes, the supernatant was discarded and 100 μL of antibody solution serially diluted with FACS buffer was added in triplicate (with starting concentration of 200 nM, 3-fold serial dilution, and the same volume of FACS buffer was used as a negative control). Mixed well and incubated at 4° C. for 60 min. After washing the plate three times with FACS buffer, a mixture consisting of 1 μg/mL hPD1-mFc (Acro, Catalog No.: PD1-H5255) and 1 μg/mL Biotin-hVEGF165 in a 1:1 volume ratio was added to each well at 100 μL/well to detect the simultaneously binding activity of the trispecific antibodies to VEGF and PD-1 after binding to cell surface CTLA-4. […] After washing the plate three times with FACS buffer, 100 μL/well of PBS solution was added to resuspend the cells, and the fluorescence signal was detected on a flow cytometer. The binding activity was fitted using a four-parameter model, and the EC₅₀ value of each antibody was calculated.

[2] = target: T2, human PD-1 on the cell surface (human, UniProt Q15116 25-288); assay: flow cytometry competition, 293T-hPD-1 cells, biotin-human PD-L1
T2 construct: whole, on cells; also called cell surface PD-1

[3] = target: T3, human CTLA-4 on the cell surface (human, UniProt P16410 36-223); assay: flow cytometry competition, 293T-hPD-1-hCTLA-4 cells (PD-1 co-expressed), biotin-human CD80
T3 construct: whole, on cells; also called CHO-hCTLA-4 cells; CHOK1-hCTLA4 cells

[4] = target: T4, human VEGF165-his protein (Acro, Catalog No. VE5-H5248) (human, UniProt P15692-4 27-191); assay: ELISA, plate coated with human VEGF165-his
T4 construct: Bought protein; also called hVEGF165-His; VEGFA; not shown: his tag
Method: ELISA was used to determine the activity of the trispecific antibodies binding to the PD-1 protein: 1 μg/mL human PD-1 protein (Acro, Catalog No.: PD1-H5221) was used to coat a high-adsorption 96-well ELISA plate and incubated at 4° C. overnight. On the next day, the plate was washed three times with PBST solution and blocked with 1% BSA-PBS solution at 37° C. for 1 hour. At the same time, 3-fold gradient dilutions of the antibody were prepared with 1% BSA-PBS solution, with a starting concentration of 10 nM. The antibodies of each gradient concentration were added to the blocked 96-well ELISA plate at 100 µL/well in triplicate and incubated at 37° C. for 1 hour. The plate was then washed three times with 0.05% PBST solution, and 100 μL/well of HRP-labeled secondary antibody (Sigma, Catalog No.: A0170) diluted at 1:5000 was added to the ELISA plate and incubated at 37° C. for 1 hour. The plate was washed three times with 0.05% PBST solution and developed with TMB. The absorbance of the 96-well ELISA plate at 450 nm was detected by an ELISA reader. The OD₄₅₀ value was fitted using a four-parameter model to calculate the EC₅₀ value of each antibody binding to PD-1.
The binding activity of the trispecific antibodies to VEGFA protein was detected by ELISA method as described in Section 2.1. The used human VEGF165-his protein was purchased from Acro, Catalog No.: VE5-H5248.

[5] = target: T1, Biotinylated Human VEGF165 (Acro, …); assay: flow cytometry: antibody titrated on 293T-hPD-1-hCTLA-4 cells, detected with 2 ug/mL biotin-hVEGF165 and PE streptavidin
Method: After centrifugation at 300 g for 5 minutes, the supernatant was discarded, and 100 μL of trispecific antibody solution serially diluted 3-fold with FACS buffer was added, with a starting concentration of 200 nM, and the same volume of FACS buffer was added as a negative control. After mixing, incubated at 4° C. for 60 minutes. After centrifugation and washing three times with FACS buffer, 2 μg/mL Biotin-hVEGF165 was added at 100 μL/well and incubated at 4° C. for 60 minutes. After centrifugation and washing three times with FACS buffer, 100 μL/well of 1:800 diluted PE Streptavidin (BD, Catalog No.: 554061) was added and incubated at 4° C. for 50 minutes. After centrifugation and washing three times with FACS buffer, 100 μL/well of FACS buffer was added to resuspend the cells, and the fluorescence signal was detected on a flow cytometer (BECKMAN COULTER cytoFLEX). The binding activity was fitted using a four-parameter model, and the EC₅₀ value of each antibody binding was calculated.

[6] = target: T5, human CTLA-4 protein (Acro, Catalog No. CT4-H52H9) (human, UniProt P16410 36-161); assay: ELISA, plate coated with human CTLA-4 protein
T5 construct: Bought protein
T5 sequence (P16410 36-161 limits assumed): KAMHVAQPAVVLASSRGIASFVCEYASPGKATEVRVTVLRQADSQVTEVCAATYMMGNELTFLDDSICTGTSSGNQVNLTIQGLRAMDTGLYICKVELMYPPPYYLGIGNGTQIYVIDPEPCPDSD

T1 sequence (P15692 other isoform, or with tags, fused parts or gaps limits assumed): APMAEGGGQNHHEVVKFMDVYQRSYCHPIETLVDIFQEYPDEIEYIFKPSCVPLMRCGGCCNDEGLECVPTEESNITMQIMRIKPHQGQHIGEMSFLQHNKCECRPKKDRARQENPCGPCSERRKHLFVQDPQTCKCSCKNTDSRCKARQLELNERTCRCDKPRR
T3 sequence (P16410 36-223): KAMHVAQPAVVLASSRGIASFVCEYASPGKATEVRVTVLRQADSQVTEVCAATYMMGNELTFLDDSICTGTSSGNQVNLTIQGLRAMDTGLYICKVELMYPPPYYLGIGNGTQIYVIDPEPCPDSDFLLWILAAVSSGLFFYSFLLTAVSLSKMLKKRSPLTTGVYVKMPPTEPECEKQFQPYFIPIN
T4 sequence (P15692 other isoform, or with tags, fused parts or gaps limits assumed): as the sequence (P15692 other isoform, or with tags, fused parts or gaps limits assumed) above
T2 sequence (Q15116 25-288): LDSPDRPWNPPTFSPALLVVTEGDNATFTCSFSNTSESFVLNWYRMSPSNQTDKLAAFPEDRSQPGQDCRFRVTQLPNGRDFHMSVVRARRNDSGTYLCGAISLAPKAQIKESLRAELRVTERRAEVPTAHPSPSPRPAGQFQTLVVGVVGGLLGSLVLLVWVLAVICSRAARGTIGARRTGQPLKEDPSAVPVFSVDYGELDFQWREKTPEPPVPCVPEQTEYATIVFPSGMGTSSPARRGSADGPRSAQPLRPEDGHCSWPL

EC50 [1]: 1.38 nM
IC50 [2]: 5 nM
IC50 [3]: ~0.002 nM
EC50 [4]: 0.111 nM
EC50 [5]: 4.2 nM
EC50 [6]: 0.031 nM
B1: HC010-F9 (trispecific antibody, human IgG4 S228P, kappa)
heavy: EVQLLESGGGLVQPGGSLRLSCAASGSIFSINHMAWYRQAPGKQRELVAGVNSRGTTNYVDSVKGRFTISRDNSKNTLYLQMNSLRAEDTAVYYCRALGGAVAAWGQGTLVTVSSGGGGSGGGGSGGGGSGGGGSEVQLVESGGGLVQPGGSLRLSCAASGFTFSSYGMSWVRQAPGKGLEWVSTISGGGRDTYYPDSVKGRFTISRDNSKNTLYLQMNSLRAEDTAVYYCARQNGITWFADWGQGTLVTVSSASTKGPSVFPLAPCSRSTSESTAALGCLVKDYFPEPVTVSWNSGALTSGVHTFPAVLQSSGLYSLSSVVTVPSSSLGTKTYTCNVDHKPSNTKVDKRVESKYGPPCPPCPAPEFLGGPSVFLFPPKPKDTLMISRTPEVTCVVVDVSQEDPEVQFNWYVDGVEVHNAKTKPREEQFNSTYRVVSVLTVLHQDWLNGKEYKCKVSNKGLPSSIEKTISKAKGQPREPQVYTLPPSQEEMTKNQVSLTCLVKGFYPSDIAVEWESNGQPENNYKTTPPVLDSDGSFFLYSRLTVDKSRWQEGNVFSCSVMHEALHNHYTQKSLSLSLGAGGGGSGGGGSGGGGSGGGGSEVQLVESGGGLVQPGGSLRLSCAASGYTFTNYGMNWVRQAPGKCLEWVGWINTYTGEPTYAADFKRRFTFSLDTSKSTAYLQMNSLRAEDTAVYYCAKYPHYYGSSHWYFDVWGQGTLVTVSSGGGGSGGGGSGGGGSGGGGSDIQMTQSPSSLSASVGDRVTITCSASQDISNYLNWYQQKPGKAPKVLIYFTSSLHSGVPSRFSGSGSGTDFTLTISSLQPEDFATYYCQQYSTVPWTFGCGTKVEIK
light: DIQMTQSPSSLSASVGDRVTITCRASESVDNYGISFMNWYQQKPGKAPKLLIYAASNQGSGVPSRFSGSGSGTDFTLTISSLQPEDFATYYCQQSKEVPWTFGGGTKVEIKRTVAAPSVFIFPPSDEQLKSGTASVVCLLNNFYPREAKVQWKVDNALQSGNSQESVTEQDSKDSTYSLSSTLTLSKADYEKHKVYACEVTHQGLSSPVTKSFNRGEC
notes: light: CQ1-3/1-11 VL-kappa; also called H010-F9

EC50 [1]: 1.37 nM
IC50 [2]: 4.5 nM
IC50 [3]: 0.056 nM
EC50 [4]: 0.121 nM
EC50 [5]: 4.9 nM
EC50 [6]: 0.093 nM
B2: HC010-F10 (trispecific antibody, human IgG4 S228P, kappa)
heavy: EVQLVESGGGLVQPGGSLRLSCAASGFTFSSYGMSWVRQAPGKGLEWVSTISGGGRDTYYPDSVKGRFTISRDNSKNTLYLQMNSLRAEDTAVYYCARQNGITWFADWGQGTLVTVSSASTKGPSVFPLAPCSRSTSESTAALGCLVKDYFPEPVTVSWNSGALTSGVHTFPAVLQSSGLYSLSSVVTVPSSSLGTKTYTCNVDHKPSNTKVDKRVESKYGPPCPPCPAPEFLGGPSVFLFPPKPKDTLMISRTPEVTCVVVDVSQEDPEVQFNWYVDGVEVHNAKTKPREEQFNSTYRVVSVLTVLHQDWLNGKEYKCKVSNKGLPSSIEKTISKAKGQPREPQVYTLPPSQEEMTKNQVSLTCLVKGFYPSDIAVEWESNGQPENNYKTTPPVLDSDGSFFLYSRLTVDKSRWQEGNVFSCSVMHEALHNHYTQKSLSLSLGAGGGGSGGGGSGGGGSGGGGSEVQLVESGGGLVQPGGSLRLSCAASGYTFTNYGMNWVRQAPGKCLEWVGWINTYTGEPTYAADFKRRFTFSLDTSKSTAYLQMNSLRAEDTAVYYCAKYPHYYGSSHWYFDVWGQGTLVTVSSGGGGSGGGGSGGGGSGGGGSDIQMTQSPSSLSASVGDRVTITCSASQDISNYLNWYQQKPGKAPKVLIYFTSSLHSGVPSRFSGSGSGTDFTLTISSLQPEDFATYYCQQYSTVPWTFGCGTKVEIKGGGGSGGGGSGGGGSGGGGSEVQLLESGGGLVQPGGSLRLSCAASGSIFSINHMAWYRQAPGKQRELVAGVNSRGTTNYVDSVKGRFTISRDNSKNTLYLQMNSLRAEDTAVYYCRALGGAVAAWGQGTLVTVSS
light: B1 light
notes: light: CQ1-3/1-11 VL-kappa; also called H010-F10
